Source: publication PMC10034513

What was measured:
[1] = target: P74-26 TTP L229A variant (bacteriophage P74-26); assay: light scattering of tube assembly; filtered TTP at ~1 mg/ml, scattering at 350 nm over time; wild type at 4, 20, 25, 37 and 50 °C and a concentration series at 37 °C; variants at 20 °C
[2] = target: P74-26 TTP Q167A variant (bacteriophage P74-26); assay: SEC-MALS; 100 μl at 1 mg/ml, filtered through 0.22 μm before loading; 50 mM Tris pH 8.0, 150 mM KCl, 5 mM βME, 5% glycerol; run at room temperature
[3] = target: P74-26 tail tube protein (TTP), gp93, in tails of purified virions (bacteriophage P74-26); assay: cryo-EM structure; tails of purified P74-26 virions, segmented helical reconstruction (C3, rise 40.25 Å, twist -44.75°)
[4] = SEC-MALS; 100 μl at 1 mg/ml, filtered through 0.22 μm before loading; 50 mM Tris pH 8.0, 150 mM KCl, 5 mM βME, 5% glycerol; run at room temperature
[5] = target: P74-26 tail tube protein (TTP), gp93, recombinant wild type (bacteriophage P74-26); assay: as above
[6] = target: P74-26 tail tube protein (TTP), gp93, recombinant wild type (bacteriophage P74-26); assay: light scattering of tube assembly; filtered TTP at ~1 mg/ml, scattering at 350 nm over time; wild type at 4, 20, 25, 37 and 50 °C and a concentration series at 37 °C; variants at 20 °C

Question: With “P74-26 TTP L229A variant (natural protein)” as the substance, how does the tube formation rate relative to WT (% of the WT rate) [1] read?
Answer: Its tube formation rate relative to WT (% of the WT rate) is 10.

Question: Which stoichiometry N [2] does the source give for “P74-26 TTP Q167A variant (natural protein)” here?
Answer: Its stoichiometry N is 3.

Question: For “P74-26 tail tube protein (TTP), gp93, in tails of purified virions (natural protein)”, which stoichiometry N [3] is on record?
Answer: Its stoichiometry N is 3.

Question: With “P74-26 tail tube protein (TTP), gp93, recombinant wild type” as the substance, how does the “mass fraction of the monomer peak” value [4] read?
Answer: The value was “∼76% mass fraction”.

Question: With “P74-26 tail tube protein (TTP), gp93, recombinant wild type (natural protein)” as the substance, how does the mass fraction of the hexamer peak [5] read?
Answer: The mass fraction of the hexamer peak was 6%.

Question: And the stoichiometry N [5]?
Answer: The stoichiometry N was 6.

Question: What about the fast-phase tube growth rate at 37 °C relative to the 20 °C rate (fold (× the 20 °C rate)) [6] of the same substance?
Answer: Its fast-phase tube growth rate at 37 °C relative to the 20 °C rate (fold (× the 20 °C rate)) is 68.

Question: What about the fast-phase tube growth rate at 50 °C relative to the 20 °C rate (fold (× the 20 °C rate)) [6] of the same substance?
Answer: Its fast-phase tube growth rate at 50 °C relative to the 20 °C rate (fold (× the 20 °C rate)) is 3520.
